Among the data in the array DNA melting data of Ke et al. are Tm values, retold here.

This data set can be described thus: melting temperature; melt of duplexes. The settings on record: sodium 0.0675 M; strand 1 µM.
In the case of “CGACGTGCATTATGTGCTG+CAGCACATAAGGCACGTCG ((((((((.((((((((((+)))))))))).))))))))”, the melting temperature (Tm) (as a rule, the temperature at which the thermal transition is half complete) was 56.7 °C.

Regarding “CGACGTGCTGTATGTGCTG+CAGCACATGCTGCACGTCG ((((((((.(.((((((((+)))))))).).))))))))”, the Tm was found to be 54.1 °C.

On to “CGACGTGCGGCATGTGCTG+CAGCACATAATGCACGTCG ((((((((...((((((((+))))))))...))))))))”, for which the Tm was determined as 51.1 °C.

In the case of “CGACGTGCGATATGTGCTG+CAGCACATTCAGCACGTCG ((((((((...((((((((+))))))))...))))))))”, the midpoint of thermal melting (Tm) was 52.8 °C.

With “CGACGTGCCGGATGTGCTG+CAGCACATGTGGCACGTCG (((((((((..((((((((+))))))))..)))))))))”, the midpoint of thermal melting (Tm) is 57.3 °C.

Take “CGACGTGCAGTATGTGCTG+CAGCACATATGGCACGTCG ((((((((..(((((((((+)))))))))..))))))))”: the Tm was 52.7 °C.

On to “CGACGTGCCAAATGTGCTG+CAGCACATATTGCACGTCG ((((((((.(.((((((((+)))))))).).))))))))”, for which the midpoint of thermal melting (Tm) amounted to 48.9 °C.

Take “CGACGTGCTTGATGTGCTG+CAGCACATTGTGCACGTCG ((((((((...((((((((+))))))))...))))))))”: the melting temperature (Tm) stood at 47.2 °C.

For the substance “CGACGTGCAAGATGTGCTG+CAGCACATAGTGCACGTCG (((((((((..((((((((+))))))))..)))))))))”, the Tm amounted to 48.6 °C.

Regarding “CGACGTGCGTTATGTGCTG+CAGCACATTACGCACGTCG ((((((((((.((((((((+)))))))).))))))))))”, the melting temperature (Tm) came out at 58.6 °C.

On to “CGACGTGCACAATGTGCTG+CAGCACATAGTGCACGTCG ((((((((((.((((((((+)))))))).))))))))))”, for which the Tm came to 53.5 °C.

With “CGACGTGCAGTATGTGCTG+CAGCACATTCGGCACGTCG ((((((((.(.((((((((+)))))))).).))))))))”, the Tm was found to be 53.1 °C.

For “CGACGTGCTTAATGTGCTG+CAGCACATAGGGCACGTCG ((((((((...((((((((+))))))))...))))))))”, the midpoint of thermal melting (Tm) was 50 °C.

In the case of “CGACGTGCTTTATGTGCTG+CAGCACATTGGGCACGTCG ((((((((...((((((((+))))))))...))))))))”, the Tm worked out at 49.8 °C.

Take “CGACGTGCCTCATGTGCTG+CAGCACATGATGCACGTCG ((((((((.((((((((((+)))))))))).))))))))”: the midpoint of thermal melting (Tm) amounted to 56.7 °C.

Turning to “CGACGTGCCTGATGTGCTG+CAGCACATCACGCACGTCG ((((((((.((((((((((+)))))))))).))))))))”, the melting temperature (Tm) was 55.5 °C.

In the case of “CGACGTGCCACATGTGCTG+CAGCACATCGTGCACGTCG ((((((((...((((((((+))))))))...))))))))”, the melting temperature (Tm) is 46.3 °C.

As for “CGACGTGCGTAATGTGCTG+CAGCACATACAGCACGTCG ((((((((...((((((((+))))))))...))))))))”, the Tm amounted to 54 °C.

For “CGACGTGCAGTATGTGCTG+CAGCACATGCCGCACGTCG ((((((((.(.((((((((+)))))))).).))))))))”, the Tm amounted to 52.8 °C.

For the substance “CGACGTGCCGTATGTGCTG+CAGCACATAGCGCACGTCG ((((((((..(((((((((+)))))))))..))))))))”, the midpoint of thermal melting (Tm) stood at 52.7 °C.

Take “CGACGTGCGACATGTGCTG+CAGCACATTTGGCACGTCG ((((((((.(.((((((((+)))))))).).))))))))”: the Tm amounted to 50.6 °C.

Turning to “CGACGTGCGGAATGTGCTG+CAGCACATCTCGCACGTCG (((((((((..((((((((+))))))))..)))))))))”, the Tm came to 55.3 °C.

“CGACGTGCTCGATGTGCTG+CAGCACATCAAGCACGTCG (((((((((.(((((((((+))))))))).)))))))))”: the Tm is 57.2 °C.

Take “CGACGTGCCGAATGTGCTG+CAGCACATGACGCACGTCG ((((((((...((((((((+))))))))...))))))))”: the midpoint of thermal melting (Tm) amounted to 50.1 °C.

For “CGACGTGCCCGATGTGCTG+CAGCACATCCCGCACGTCG ((((((((..(((((((((+)))))))))..))))))))”, the Tm was found to be 51.9 °C.

Take “CGACGTGCGGTATGTGCTG+CAGCACATATAGCACGTCG ((((((((..(((((((((+)))))))))..))))))))”: the Tm stood at 56.4 °C.

For “CGACGTGCCAAATGTGCTG+CAGCACATCAGGCACGTCG (((((((((..((((((((+))))))))..)))))))))”, the Tm is 54.2 °C.

Regarding “CGACGTGCAAAATGTGCTG+CAGCACATTCCGCACGTCG ((((((((..(((((((((+)))))))))..))))))))”, the Tm worked out at 50.6 °C.

“CGACGTGCGATATGTGCTG+CAGCACATGTAGCACGTCG ((((((((.(.((((((((+)))))))).).))))))))”: the Tm is 54.9 °C.

In the case of “CGACGTGCCATATGTGCTG+CAGCACATCGAGCACGTCG ((((((((...((((((((+))))))))...))))))))”, the midpoint of thermal melting (Tm) turned out to be 49.8 °C.

In the case of “CGACGTGCATAATGTGCTG+CAGCACATGTAGCACGTCG ((((((((...((((((((+))))))))...))))))))”, the Tm was 52.6 °C.

In the case of “CGACGTGCTGCATGTGCTG+CAGCACATCCCGCACGTCG ((((((((.(.((((((((+)))))))).).))))))))”, the midpoint of thermal melting (Tm) came to 49.9 °C.

With “CGACGTGCTACATGTGCTG+CAGCACATTCGGCACGTCG ((((((((...((((((((+))))))))...))))))))”, the Tm worked out at 49.1 °C.

With “CGACGTGCCAGATGTGCTG+CAGCACATTTCGCACGTCG ((((((((.(.((((((((+)))))))).).))))))))”, the melting temperature (Tm) is 49.6 °C.

As for “CGACGTGCTGTATGTGCTG+CAGCACATACCGCACGTCG ((((((((.((((((((((+)))))))))).))))))))”, the midpoint of thermal melting (Tm) amounted to 55.2 °C.

With “CGACGTGCGAAATGTGCTG+CAGCACATTGAGCACGTCG ((((((((..(((((((((+)))))))))..))))))))”, the melting temperature (Tm) came to 61.3 °C.

On to “CGACGTGCCTTATGTGCTG+CAGCACATCAAGCACGTCG ((((((((.(.((((((((+)))))))).).))))))))”, for which the melting temperature (Tm) was 48.8 °C.

As to “CGACGTGCAATATGTGCTG+CAGCACATAGTGCACGTCG (((((((((.(((((((((+))))))))).)))))))))”, the midpoint of thermal melting (Tm) came out at 53.9 °C.

In the case of “CGACGTGCGATATGTGCTG+CAGCACATAAGGCACGTCG ((((((((..(((((((((+)))))))))..))))))))”, the melting temperature (Tm) came to 52 °C.

For “CGACGTGCCGGATGTGCTG+CAGCACATAATGCACGTCG ((((((((...((((((((+))))))))...))))))))”, the midpoint of thermal melting (Tm) worked out at 48.6 °C.

As to “CGACGTGCAGCATGTGCTG+CAGCACATTCTGCACGTCG ((((((((((.((((((((+)))))))).))))))))))”, the melting temperature (Tm) worked out at 55 °C.

With “CGACGTGCAGAATGTGCTG+CAGCACATTTGGCACGTCG ((((((((..(((((((((+)))))))))..))))))))”, the midpoint of thermal melting (Tm) turned out to be 54.3 °C.

Take “CGACGTGCGCGATGTGCTG+CAGCACATCAAGCACGTCG ((((((((..(((((((((+)))))))))..))))))))”: the Tm was 59 °C.

For “CGACGTGCCAGATGTGCTG+CAGCACATCGGGCACGTCG (((((((((.(((((((((+))))))))).)))))))))”, the Tm was 62.2 °C.

With “CGACGTGCTACATGTGCTG+CAGCACATGCCGCACGTCG ((((((((..(((((((((+)))))))))..))))))))”, the Tm was determined as 52.3 °C.

For the substance “CGACGTGCAATATGTGCTG+CAGCACATTCGGCACGTCG ((((((((...((((((((+))))))))...))))))))”, the Tm came to 49.5 °C.

As for “CGACGTGCCCTATGTGCTG+CAGCACATCACGCACGTCG ((((((((...((((((((+))))))))...))))))))”, the Tm was determined as 46.4 °C.

In the case of “CGACGTGCAACATGTGCTG+CAGCACATCACGCACGTCG ((((((((...((((((((+))))))))...))))))))”, the Tm turned out to be 46.5 °C.

As for “CGACGTGCGGCATGTGCTG+CAGCACATCAAGCACGTCG ((((((((...((((((((+))))))))...))))))))”, the melting temperature (Tm) was 53.6 °C.

On to “CGACGTGCCGTATGTGCTG+CAGCACATGATGCACGTCG ((((((((...((((((((+))))))))...))))))))”, for which the Tm worked out at 49.2 °C.

On to “CGACGTGCAAGATGTGCTG+CAGCACATTTAGCACGTCG ((((((((.(.((((((((+)))))))).).))))))))”, for which the Tm is 51.1 °C.

As for “CGACGTGCGCGATGTGCTG+CAGCACATAGAGCACGTCG ((((((((.(.((((((((+)))))))).).))))))))”, the Tm turned out to be 55.8 °C.

Regarding “CGACGTGCGGAATGTGCTG+CAGCACATCTGGCACGTCG ((((((((...((((((((+))))))))...))))))))”, the midpoint of thermal melting (Tm) is 52.3 °C.

Take “CGACGTGCTTGATGTGCTG+CAGCACATTCCGCACGTCG ((((((((...((((((((+))))))))...))))))))”: the Tm was determined as 48.5 °C.

In the case of “CGACGTGCGTAATGTGCTG+CAGCACATCCCGCACGTCG (((((((((..((((((((+))))))))..)))))))))”, the Tm came out at 53.5 °C.

With “CGACGTGCCTAATGTGCTG+CAGCACATAGCGCACGTCG ((((((((...((((((((+))))))))...))))))))”, the Tm is 50.3 °C.

Turning to “CGACGTGCCCCATGTGCTG+CAGCACATCAAGCACGTCG ((((((((...((((((((+))))))))...))))))))”, the midpoint of thermal melting (Tm) was determined as 47.3 °C.

Consider “CGACGTGCTTTATGTGCTG+CAGCACATTGAGCACGTCG (((((((((..((((((((+))))))))..)))))))))”, for which the Tm is 52 °C.

Consider “CGACGTGCATCATGTGCTG+CAGCACATAGAGCACGTCG ((((((((...((((((((+))))))))...))))))))”, for which the melting temperature (Tm) is 50.1 °C.

On to “CGACGTGCTTTATGTGCTG+CAGCACATTTGGCACGTCG ((((((((...((((((((+))))))))...))))))))”, for which the melting temperature (Tm) came out at 50.1 °C.

In the case of “CGACGTGCCACATGTGCTG+CAGCACATTTGGCACGTCG ((((((((((.((((((((+)))))))).))))))))))”, the midpoint of thermal melting (Tm) was determined as 57.6 °C.

“CGACGTGCAATATGTGCTG+CAGCACATTGCGCACGTCG ((((((((...((((((((+))))))))...))))))))”: the midpoint of thermal melting (Tm) was 50 °C.

Regarding “CGACGTGCGGGATGTGCTG+CAGCACATCGTGCACGTCG ((((((((..(((((((((+)))))))))..))))))))”, the melting temperature (Tm) was determined as 56.2 °C.

Take “CGACGTGCCCTATGTGCTG+CAGCACATAAGGCACGTCG (((((((((.(((((((((+))))))))).)))))))))”: the Tm was determined as 55.6 °C.

As to “CGACGTGCGCGATGTGCTG+CAGCACATTTAGCACGTCG ((((((((...((((((((+))))))))...))))))))”, the midpoint of thermal melting (Tm) turned out to be 52.2 °C.

As to “CGACGTGCCGGATGTGCTG+CAGCACATGCCGCACGTCG ((((((((.(.((((((((+)))))))).).))))))))”, the Tm was found to be 53.4 °C.
